Test results published in article PMC9076029 (Journal of Molecular Biology, 2022).
Where two headings read alike, the source gives them in different places.

Experiments:
Test in all cases: ITC
[1] = molecular target: T1, SARS-CoV-2 spike protein receptor binding domain, wild-type (SARS-CoV-2, UniProt P0DTC2)
[2] = molecular target: T1, SARS-CoV-2 spike protein receptor …; remark: listed apart in the source
[3] = molecular target: T1, SARS-CoV-2 spike protein receptor …; remark: listed apart in the source
[4] = molecular target: T1, SARS-CoV-2 spike protein receptor …; remark: listed apart in the source

B1: LY-CoV016 single chain variable fragment (scFv, V domains shown)
VH: EVQLVESGGGLVQPGGSLRLSCAASGFTVSSNYMSWVRQAPGKGLEWVSVIYSGGSTFYADSVKGRFTISRDNSMNTLFLQMNSLRAEDTAVYYCARVLPMYGDYLDYWGQGTLVTVSS
VL: not shown
[1]
  Kd: 49.3 ± 10.1 nM
  dH: -11.7 ± 0.1 kcal/mol

B2: REGN10987 single chain variable fragment (scFv, V domains shown)
VH: QVQLVESGGGVVQPGRSLRLSCAASGFTFSNYAMYWVRQAPGKGLEWVAVISYDGSNKYYADSVKGRFTISRDNSKNTLYLQMNSLRTEDTAVYYCASGSDYGDYLLVYWGQGTLVTVSS
VL: QSALTQPASVSGSPGQSITISCTGTSSDVGGYNYVSWYQQHPGKAPKLMIYDVSKRPSGVSNRFSGSKSGNTASLTISGLQSEDEADYYCNSLTSISTWVFGGGTKLTVL
[2]
  Kd: 34.3 ± 8.1 nM

B3: LY-CoV555 single chain variable fragment (scFv, V domains shown)
VH: QVQLVQSGAEVKKPGSSVKVSCKASGGTFSNYAISWVRQAPGQGLEWMGRIIPILGIANYAQKFQGRVTITADKSTSTAYMELSSLRSEDTAVYYCARGYYEARHYYYYYAMDVWGQGTAVTVSS
VL: not shown
[3]
  Kd: 3.8 ± 1.9 nM
[4]
  Kd: 3.9 ± 1.9 nM
